Reference: patent US20160159872A1

Experiments:
6xHis-CtBP [1] = target: 6xHis-CtBP (UniProt Q13363); test: competition assay of the CtBP/E1A protein interaction (format not said)
6xHis-CtBP [2] = target: 6xHis-CtBP (UniProt Q13363); test: competition assay of the CtBP-E1A interaction (AlphaScreen or fluorescence polarization; not said which)
6xHis-CtBP [3] = target: 6xHis-CtBP (UniProt Q13363); test: competition assay of the CtBP/E1A interaction, FIG. 3
6xHis-CtBP [4] = target: 6xHis-CtBP (UniProt Q13363); test: fluorescence polarization; unlabeled peptide competes with the FITC-labeled 14mer peptide for CtBP

Substance | IC50 (6xHis-CtBP [1]) [µM] | IC50 (6xHis-CtBP [2]) [µM] | IC50 (6xHis-CtBP [3]) [µM] | IC50 (6xHis-CtBP [4]) [µM]
Tat-E1A-flag (peptide) | 1.7 | 1.7 | 7.7 | –
Wild-type 14mer E1A peptide … | 7.26 | 7.26 | – | 6
